According to patent US20140161798A1 (Merck Sharp & Dohme, published 2014):
Blank lines part the entries; values can stand above or below the molecule they belong to.

How the values were obtained:
[1] = molecular target: Purified PCSK9 carrying a C-terminal FLAG tag (UniProt Q8NBP7); experiment: AlphaScreen PCSK9-FLAG/His-LDLR; log[antibody] ug/ml -1.9909
[2] = molecular target: Purified PCSK9 carrying a C-terminal FLAG tag (UniProt Q8NBP7); experiment: AlphaScreen PCSK9-FLAG/His-LDLR; log[antibody] ug/ml 0.871832
[3] = molecular target: Purified PCSK9 carrying a C-terminal FLAG tag (UniProt Q8NBP7); experiment: AlphaScreen PCSK9-FLAG/His-LDLR; log[antibody] ug/ml -1.03665
[4] = molecular target: Purified PCSK9 carrying a C-terminal FLAG tag (UniProt Q8NBP7); experiment: AlphaScreen PCSK9-FLAG/His-LDLR; log[antibody] ug/ml 0.871832; remark: listed apart in the source
[5] = molecular target: Purified PCSK9 carrying a C-terminal FLAG tag (UniProt Q8NBP7); experiment: AlphaScreen PCSK9-FLAG/His-LDLR; log[antibody] ug/ml 1.348954
[6] = molecular target: Purified PCSK9 carrying a C-terminal FLAG tag (UniProt Q8NBP7); experiment: as above; remark: listed apart in the source
[7] = molecular target: Purified PCSK9 carrying a C-terminal FLAG tag (UniProt Q8NBP7); experiment: AlphaScreen PCSK9-FLAG/His-LDLR; log[antibody] ug/ml 0.394711
[8] = molecular target: Purified PCSK9 carrying a C-terminal FLAG tag (UniProt Q8NBP7); experiment: AlphaScreen PCSK9-FLAG/His-LDLR; log[antibody] ug/ml -1.9909; remark: listed apart in the source
[9] = molecular target: Purified PCSK9 carrying a C-terminal FLAG tag (UniProt Q8NBP7); experiment: AlphaScreen PCSK9-FLAG/His-LDLR; log[antibody] ug/ml -1.03665; remark: listed apart in the source
[10] = molecular target: Purified PCSK9 carrying a C-terminal FLAG tag (UniProt Q8NBP7); experiment: AlphaScreen PCSK9-FLAG/His-LDLR; log[antibody] ug/ml 1.826075
bacu-PCSK9-WT = bacu-PCSK9-WT (UniProt Q8NBP7); experiment: cell-based or functional assay
Chain of bacu-PCSK9-WT (Q8NBP7 31-692 limits assumed): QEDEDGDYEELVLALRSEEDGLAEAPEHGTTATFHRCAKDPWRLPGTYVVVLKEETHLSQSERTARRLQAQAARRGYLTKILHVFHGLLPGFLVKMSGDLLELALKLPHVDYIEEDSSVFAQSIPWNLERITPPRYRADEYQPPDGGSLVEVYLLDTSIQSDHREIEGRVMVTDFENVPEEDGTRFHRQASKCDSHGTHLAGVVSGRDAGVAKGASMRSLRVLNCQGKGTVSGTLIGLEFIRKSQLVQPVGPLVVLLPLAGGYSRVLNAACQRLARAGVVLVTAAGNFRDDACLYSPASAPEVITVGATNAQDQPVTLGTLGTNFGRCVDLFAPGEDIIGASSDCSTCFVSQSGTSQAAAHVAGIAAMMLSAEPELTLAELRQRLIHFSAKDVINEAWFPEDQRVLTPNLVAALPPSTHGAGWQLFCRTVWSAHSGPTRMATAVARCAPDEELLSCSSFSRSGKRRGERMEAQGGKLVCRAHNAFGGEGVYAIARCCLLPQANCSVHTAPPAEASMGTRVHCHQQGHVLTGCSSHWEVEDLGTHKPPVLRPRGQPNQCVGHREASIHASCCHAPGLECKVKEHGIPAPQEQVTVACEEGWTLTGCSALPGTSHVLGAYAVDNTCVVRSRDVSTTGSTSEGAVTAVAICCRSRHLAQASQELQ

[11] = molecular target: Purified PCSK9 carrying a C-terminal FLAG tag (UniProt Q8NBP7); experiment: AlphaScreen PCSK9-FLAG/His-LDLR; log[antibody] ug/ml -0.55953
[12] = molecular target: Purified PCSK9 carrying a C-terminal FLAG tag (UniProt Q8NBP7); experiment: AlphaScreen PCSK9-FLAG/His-LDLR; log[antibody] ug/ml -2.46802
[13] = molecular target: Purified PCSK9 carrying a C-terminal FLAG tag (UniProt Q8NBP7); experiment: AlphaScreen PCSK9-FLAG/His-LDLR; log[antibody] ug/ml -1.51377
[14] = molecular target: Purified PCSK9 carrying a C-terminal FLAG tag (UniProt Q8NBP7); experiment: AlphaScreen PCSK9-FLAG/His-LDLR; log[antibody] ug/ml -2.94514
[15] = molecular target: Purified PCSK9 carrying a C-terminal FLAG tag (UniProt Q8NBP7); experiment: AlphaScreen PCSK9-FLAG/His-LDLR; log[antibody] ug/ml -0.55953; remark: listed apart in the source
[16] = molecular target: Purified PCSK9 carrying a C-terminal FLAG tag (UniProt Q8NBP7); experiment: AlphaScreen PCSK9-FLAG/His-LDLR; log[antibody] ug/ml 0.394711; remark: listed apart in the source
[17] = molecular target: Purified PCSK9 carrying a C-terminal FLAG tag (UniProt Q8NBP7); experiment: AlphaScreen PCSK9-FLAG/His-LDLR; log[antibody] ug/ml -0.08241
[18] = molecular target: Purified PCSK9 carrying a C-terminal FLAG tag (UniProt Q8NBP7); experiment: AlphaScreen PCSK9-FLAG/His-LDLR; log[antibody] ug/ml -2.46802; remark: listed apart in the source
[19] = molecular target: Purified PCSK9 carrying a C-terminal FLAG tag (UniProt Q8NBP7); experiment: AlphaScreen PCSK9-FLAG/His-LDLR; log[antibody] ug/ml -0.08241; remark: listed apart in the source
[20] = molecular target: Purified PCSK9 carrying a C-terminal FLAG tag (UniProt Q8NBP7); experiment: AlphaScreen PCSK9-FLAG/His-LDLR; log[antibody] ug/ml 1.826075; remark: listed apart in the source
[21] = molecular target: Purified PCSK9 carrying a C-terminal FLAG tag (UniProt Q8NBP7); experiment: AlphaScreen PCSK9-FLAG/His-LDLR; log[antibody] ug/ml -1.51377; remark: listed apart in the source
[22] = molecular target: T1, Purified PCSK9 carrying a C-terminal FLAG tag (UniProt Q8NBP7 31-692); experiment: AlphaScreen, inhibition of PCSK9-Flag/His-tagged LDL receptor interaction; average of two measurements
T1 construct: also called PCSK9-FLAG; PCSK9-Flag; not shown: C-terminal FLAG tag
T1 sequence (Q8NBP7 31-692 limits assumed): as above
Method: This technique required that “donor” and “acceptor” beads be brought into proximity via protein—protein interaction, resulting in increased luminescence (Ullman et al., Proc. Nat. Acad. Sci. (1994) 91:5426-5430). […] About 2.5 μl of biotinylated anti-Flag-M2 antibody (1.8 μg/ml) was added and the mixture incubated for 1 hour. Afterward 5 μl of streptavidin donor bead and nickel chelate acceptor bead (1:1 mixture) was added and the assay incubated overnight. AlphaScreen signal (counts per second) was analyzed using an EnVision microplate reader (Perkin-Elmer). All data points were determined in triplicate. Assays were carried out at 23° C. in buffer containing 25 mM HEPES, 0.1 M NaCl, pH 7.4, 0.1% BSA. The inhibition assays were determined similarly with slight adjustments to assay volumes and protein concentrations.

Chain of Purified PCSK9 carrying a C-terminal FLAG tag (UniProt Q8NBP7) (Q8NBP7 31-692 limits assumed): as above

AlphaScreen mean counts [1]: 81500 counts
AlphaScreen mean counts [2]: 55600 counts
AlphaScreen mean counts [3]: 124000 counts
AlphaScreen mean counts [4]: 33300 counts
AlphaScreen mean counts [5]: 12300 counts
AlphaScreen mean counts [6]: 25800 counts
AlphaScreen mean counts [7]: 60100 counts
AlphaScreen mean counts [8]: 130000 counts
AlphaScreen mean counts [9]: 79800 counts
AlphaScreen mean counts [10]: 2100 counts
DiI-LDL uptake by HepG2 cells, 6 hour incubation, [PCSK9] 1.67 ug/ml, antibody 100 ug/ml (fluorescence intensity) (bacu-PCSK9-WT): 2.95e+07
DiI-LDL uptake by HepG2 cells, 6 hour incubation, [PCSK9] 5 ug/ml, antibody 100 ug/ml (fluorescence intensity) (bacu-PCSK9-WT): 2.56e+07
DiI-LDL uptake by HepG2 cells, 6 hour incubation, [PCSK9] 15 ug/ml, antibody 100 ug/ml (fluorescence intensity) (bacu-PCSK9-WT): 2.24e+07
DiI-LDL uptake by HepG2 cells, 18 hour incubation, [PCSK9] 1.67 ug/ml, antibody 100 ug/ml (fluorescence intensity) (bacu-PCSK9-WT): 3.2e+07
DiI-LDL uptake by HepG2 cells, 18 hour incubation, [PCSK9] 5 ug/ml, antibody 100 ug/ml (fluorescence intensity) (bacu-PCSK9-WT): 2.59e+07
DiI-LDL uptake by HepG2 cells, 18 hour incubation, [PCSK9] 15 ug/ml, antibody 100 ug/ml (fluorescence intensity) (bacu-PCSK9-WT): 2.18e+07
AlphaScreen mean counts [11]: 77400 counts
AlphaScreen mean counts [12]: 80600 counts
AlphaScreen mean counts [13]: 85600 counts
AlphaScreen mean counts [14]: 85400 counts
AlphaScreen mean counts [15]: 128000 counts
AlphaScreen mean counts [16]: 93500 counts
AlphaScreen mean counts [17]: 70000 counts
AlphaScreen mean counts [18]: 132000 counts
AlphaScreen mean counts [19]: 94800 counts
AlphaScreen mean counts [20]: 6840 counts
AlphaScreen mean counts [21]: 126000 counts
Molecule: Rabbit anti-murine-PCSK9 polyclonal antibody, Cayman Chemical Cat.#10008811 (anti-PCSK9-catalytic domain antibody)

IC50 [22]: 0.049 nM
B1: 1F11/1G11 anti-PCSK9 antibody (IgG2a) (antibody, V domains shown)
VH: EVQLQQSGPELVKPGASVKISCKVSGYTFTDYYMNWVKQSHGKSLEWIGDINPNNGGAIYNQKFKGKATLTVDKSSSIAYMELRSLTSEDSAVYYCTSGIITEIAEDFWGQGTTLTVSS
VL: DIVMTQSQKFMSTSVGDRVSVTCKASQNVGTNVVWYQQKPGQSPKALIHSASYRYSGVPDRFKGSGSGTDFTLTITNVQSEDLAGFFCQQYKTYPYTFGGGTQLEIKR
notes: also called anti-human PCSK9 Antibody, 1F11/1G11
